Substrate: NCCc1ccc(O)c(O)c1
Experiment: cells, lysate or membranes named

B1: Solute carrier family 22 member 2 (Rattus norvegicus) (protein)
chain: MSTVDDILEHIGEFHLFQKQTFFLLALLSGAFTPIYVGIVFLGFTPDHHCWSPGAAKLSQRCGWSQAEELNYTVPGLGPSDEASFLSQCMRYEVDWNQSTLDCVDPLSSLAADRNQLPLGPCEHGWVYNTPGSSIVTEFNLVCAHSWMLDLFQSVVNVGFFIGAMMIGYLADRFGRKFCLLVTILINAISGALMAISPNYAWMLVFRFLQGLVSKAGWLIGYILITEFVGLGYRRMVGICYQIAFTVGLLILAGVAYVIPNWRWLQFAVTLPNFCFLLYFWCIPESPRWLISQNKIVKAMKIIKHIAKKNGKSVPVSLQNLTPDEDAGKKLNPSFLDLVRTPQIRKHTLILMYNWFTSSVLYQGLIMHMGLAGDNIYLDFFYSALVEFPAAFIIILTIDRVGRRYPWAVSNMVAGAACLASVFIPDDLQWLKITIACLGRMGITMAYEMVCLVNAELYPTYIRNLGVLVCSSMCDIGGIITPFLVYRLTDIWMEFPLVVFAVVGLVAGALVLLLPETKGKALPETIEDAENMQRPRKKKEKRIYLQVKQADRPLS
With B1 the Km was 2300 µM.

From ChEMBL document CHEMBL2074411
